According to patent US20230251254A1, “METHOD FOR EVALUATING INTERACTION BETWEEN IMMOBILIZED SUBSTANCE IMMOBILIZED DIRECTLY OR INDIRECTLY ON SUBSTRATE AND PROXIMITY-DEPENDENT MODIFYING ENZYMELABELED SUBSTANCE TO BE ANALYZED” (CELLFREE SCIENCES CO.,LTD., priority 2020, published 2023):
Substitutions are numbered along the chain they refer to. Numbers in names are those of the source. Values belong to the molecule of their own block, whether it stands above or below them.

Columns and labels:
[1] = tested on: interaction between TP53 and MDM2 or between Iκβα and RelA; assay: Comparison of altered biotinylation enzymes by the method of Example 2 (Example 4); format: biochemical; conditions: for specificity / non-specific signal of labeling: luminescence detection; for labeling activity on introduction of Q141R mutation into AVVA mutant: compared with AVVA mutant without Q141R
Protocol: In this Example, various altered biotinylation enzymes were evaluated by the method used in Example 2.
Specifically, by a method similar to that for AirID (SEQ ID NO: 3) in Example 2, the interaction between TP53 and MDM2 or between Iκβα and RelA was analyzed using BioID (SEQ ID NO: 1), TurboID (SEQ ID NO: 2), an AirID-S118G mutant (SEQ ID NO: 12), an AWA-R118S mutant (SEQ ID NO: 13), an AVVA-R118G mutant (SEQ ID NO: 14), an AWA-R118S, Q141R mutant (SEQ ID NO: 15), and an AVVA-R118G, Q141R mutant (SEQ ID NO: 16).
The results in the figures were standardized in that the dispensation amount of the magnetic beads on the wells of the plate was 75 nL. An exposure time at the time of luminescence detection with LAS4000 (manufactured by GE Healthcare) was set to 3 minutes for TurboID, and 10 minutes for the protein of any other sequence identification number. A signal value was obtained from a measurement image through use of Array-Pro Analyzer™.

[2] = target: T1, FLAG-GST-fused MDM2 (UniProt P23804 1-489); assay: proximity-biotinylation bead array, streptavidin-HRP luminescence; labeling 26°C; exposure 10 min
T1 construct: Immobilized on glutathione magnetic beads on the non-denatured protein array; Order of the parts follows the printed name FLAG-GST; also called FLAG-GST-fused immobilized substance (MDM2); not shown: FLAG tag protein; GST protein (glutathione S-transferase tag)
T1 sequence (P23804 whole entry, the tested form may be a part): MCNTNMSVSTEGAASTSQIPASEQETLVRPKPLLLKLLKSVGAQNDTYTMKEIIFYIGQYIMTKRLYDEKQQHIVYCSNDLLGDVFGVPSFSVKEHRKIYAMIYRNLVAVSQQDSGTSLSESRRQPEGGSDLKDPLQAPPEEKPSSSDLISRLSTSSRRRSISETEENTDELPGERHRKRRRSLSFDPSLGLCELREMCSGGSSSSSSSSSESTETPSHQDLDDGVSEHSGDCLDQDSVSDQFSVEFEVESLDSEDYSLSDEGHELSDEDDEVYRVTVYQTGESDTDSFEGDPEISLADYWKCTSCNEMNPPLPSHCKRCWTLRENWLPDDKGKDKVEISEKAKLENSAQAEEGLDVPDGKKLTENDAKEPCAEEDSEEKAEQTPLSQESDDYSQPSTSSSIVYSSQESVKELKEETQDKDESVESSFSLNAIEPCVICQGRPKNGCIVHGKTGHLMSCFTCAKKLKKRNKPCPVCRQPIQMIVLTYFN

[3] = target: T1, FLAG-GST-fused MDM2; assay: proximity-biotinylation bead array, streptavidin-HRP luminescence; labeling 26°C 1 h; exposure 10 min
[4] = target: T2, FLAG-GST-fused RelA (UniProt Q04206 1-551); assay: as above
T2 construct: Immobilized on glutathione magnetic beads on the non-denatured protein array; Order of the parts follows the printed name FLAG-GST; also called FLAG-GST-fused immobilized substance (RelA); not shown: FLAG tag protein; GST protein (glutathione S-transferase tag)
T2 sequence (Q04206 other isoform, or with tags, fused parts or gaps): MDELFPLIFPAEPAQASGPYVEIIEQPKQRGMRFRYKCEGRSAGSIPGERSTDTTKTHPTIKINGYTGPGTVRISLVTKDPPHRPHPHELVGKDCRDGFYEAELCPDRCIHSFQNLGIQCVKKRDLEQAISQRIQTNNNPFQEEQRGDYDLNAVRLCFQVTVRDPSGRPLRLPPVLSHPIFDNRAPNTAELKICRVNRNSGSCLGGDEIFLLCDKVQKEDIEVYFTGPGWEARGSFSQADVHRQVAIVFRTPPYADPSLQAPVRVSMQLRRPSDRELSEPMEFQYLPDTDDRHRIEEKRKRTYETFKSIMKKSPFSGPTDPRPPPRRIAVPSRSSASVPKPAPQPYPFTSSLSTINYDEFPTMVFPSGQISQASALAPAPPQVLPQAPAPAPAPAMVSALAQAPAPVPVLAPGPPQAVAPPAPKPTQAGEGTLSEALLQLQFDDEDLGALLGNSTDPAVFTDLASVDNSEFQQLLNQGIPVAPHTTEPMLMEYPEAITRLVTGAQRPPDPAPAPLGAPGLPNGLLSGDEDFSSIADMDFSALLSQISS

[5] = target: T1, FLAG-GST-fused MDM2; assay: proximity-biotinylation bead array, streptavidin-HRP luminescence; labeling 26°C 3 h; exposure 10 min
[6] = target: T2, FLAG-GST-fused RelA; assay: as above
[7] = target: T1, FLAG-GST-fused MDM2; assay: proximity-biotinylation bead array, streptavidin-HRP luminescence; labeling 26°C 30 min; exposure 10 min
[8] = target: T2, FLAG-GST-fused RelA; assay: as above

specificity / non-specific signal of labeling ([1]; 75 nL magnetic beads): low non-specificity
Molecule: BioID: proximity-dependent biotin ligase, SEQ ID NO: 1 [reference compound]
biotin modification activity ([1]; compared with the other enzymes): lower biotin modification activity than the other enzymes

binding result [2]: no binding | signal value [3]: 310 | signal value [4]: 11100 | signal value [5]: 330 | signal value [6]: 50000 | signal value [7]: 320
B1: AVVA-R118S mutant-fused Iκβα (other)
fusion protein: MSEQWSRKREILALLSSGHFVSGEELATQLGISRTAVSKHIAALEEYGVDIYSVKGKGYKLANPISLIDESKLKSAINNRCFYFDEIPSTNGFMLKHAEELKSGDICVAEYQSAGRGSRGRTWVSPYGCHLYFSLYWRFPQGMAQAMGLSLVVACSLVKVLKSFGVDGVGVKWPNDIYLNHKKLAGVLIEMSGQADSECHLVIGIGINMAMSEQQGKKIDQPWSDLSSLTSMPDKTELLIALQKQLKQDLELFEREGLKAFQPRWQEADLFYGKQIKLLMGENQVEGICRGIDEQGAVLLETDDGIQAFIGGEISLRAAMFQAAERPQEWAMEGPRDGLKKERLLDDRHDSGLDSMKDEEYEQMVKELQEIRLEPQEVPRSSEPWKQQLTEDGDSFLHLAIIHEEKALTMEVIRQVKGDLAFLNFQNNLQQTPLHLAVITNQPEIAEALLGAGCDPELRDFRGNTPLHLACEQGCLASVGVLTQSCTTPHLHSILKATNYNGHTCLHLASIHGYLGIVELLVSLGADVNAQEPCNGRTALHLAVDLQNPDLVSLLLKCGADVNRVTYQGYSPYQLTWGRPSTRIQQQLGQLTLENLQMLPESEDEESYDTESEFTEFTEDELPYDDCVFGGQRLTL

binding result [2]: no binding | signal value [3]: 230 | signal value [5]: 310 | signal value [6]: 39400 | signal value [7]: 140 | signal value [8]: 6900
B2: AVVA-R118G mutant-fused Iκβα (other)
fusion protein: B1 fusion protein with S118G

binding result [2]: no binding | signal value [3]: 280 | signal value [4]: 10100 | signal value [5]: 430 | signal value [6]: > 65000 | signal value [7]: 550
B3: AVVA-R118G,Q141R mutant-fused Iκβα (other)
fusion protein: B1 fusion protein with S118G, Q141R

binding result [2]: no binding | signal value [3]: 220 | signal value [4]: 10200 | signal value [5]: 370 | signal value [6]: 51400 | signal value [7]: 240 | signal value [8]: 9570
B4: AirID-S118G mutant-fused Iκβα (other)
fusion protein: MKDNTVPLTLISILADGEFHSGEQLGEQLGMSRAAINKHIKTLRDWGVDVFRVQGKGYCLPEPIQLLDEEKIRQQLDEGSVTVLPVIDSTNQYLLDRLDELTSGDVCIAEYQQAGRGGRGRKWFSPFGANLYLSMYWRLEQGPAAAMGLSLVIGIVMAETLQKLGADGVRVKWPNDLYLNDRKLAGILVEMTGKTGDAAHIVIGAGINLSMREPETDEVDQSWINLQEAGITIDRNQLAARLIKDLRSALRQFEQQGLAPFLSRWEALDNFINRPVKLIIGDREIHGIARGINEQGALLLEQDGVIKPWIGGEISLRSAMFQAAERPQEWAMEGPRDGLKKERLLDDRHDSGLDSMKDEEYEQMVKELQEIRLEPQEVPRSSEPWKQQLTEDGDSFLHLAIIHEEKALTMEVIRQVKGDLAFLNFQNNLQQTPLHLAVITNQPEIAEALLGAGCDPELRDFRGNTPLHLACEQGCLASVGVLTQSCTTPHLHSILKATNYNGHTCLHLASIHGYLGIVELLVSLGADVNAQEPCNGRTALHLAVDLQNPDLVSLLLKCGADVNRVTYQGYSPYQLTWGRPSTRIQQQLGQLTLENLQMLPESEDEESYDTESEFTEFTEDELPYDDCVFGGQRLTL

specificity / non-specific signal of labeling ([1]; 75 nL magnetic beads): extremely high specificity
B5: AirID: proximity-dependent biotin ligase, SEQ ID NO: 3 (protein)
chain: MKDNTVPLTLISILADGEFHSGEQLGEQLGMSRAAINKHIKTLRDWGVDVFRVQGKGYCLPEPIQLLDEEKIRQQLDEGSVTVLPVIDSTNQYLLDRLDELTSGDVCIAEYQQAGRGSRGRKWFSPFGANLYLSMYWRLEQGPAAAMGLSLVIGIVMAETLQKLGADGVRVKWPNDLYLNDRKLAGILVEMTGKTGDAAHIVIGAGINLSMREPETDEVDQSWINLQEAGITIDRNQLAARLIKDLRSALRQFEQQGLAPFLSRWEALDNFINRPVKLIIGDREIHGIARGINEQGALLLEQDGVIKPWIGGEISLRSA
modifications: AirID

specificity / non-specific signal of labeling ([1]; 75 nL magnetic beads): extremely high specificity
B6: AirID-S118G mutant: proximity-dependent biotin ligase, SEQ ID NO: 12 (protein)
chain: B5 chain with S118G
modifications: AirID_S118G

specificity / non-specific signal of labeling ([1]; 75 nL magnetic beads): extremely high specificity | labeling activity on introduction of Q141R mutation into AVVA mutant [1]: enhances its labeling activity
B7: AWA-R118S, Q141R mutant: proximity-dependent biotin ligase, SEQ ID NO: 15 (protein)
chain: MSEQWSRKREILALLSSGHFVSGEELATQLGISRTAVSKHIAALEEYGVDIYSVKGKGYKLANPISLIDESKLKSAINNRCFYFDEIPSTNGFMLKHAEELKSGDICVAEYQSAGRGSRGRTWVSPYGCHLYFSLYWRFPRGMAQAMGLSLVVACSLVKVLKSFGVDGVGVKWPNDIYLNHKKLAGVLIEMSGQADSECHLVIGIGINMAMSEQQGKKIDQPWSDLSSLTSMPDKTELLIALQKQLKQDLELFEREGLKAFQPRWQEADLFYGKQIKLLMGENQVEGICRGIDEQGAVLLETDDGIQAFIGGEISLRAA
modifications: AVVA-R118S,Q141R

specificity / non-specific signal of labeling ([1]; 75 nL magnetic beads): extremely high specificity | labeling activity on introduction of Q141R mutation into AVVA mutant [1]: enhances its labeling activity
B8: AVVA-R118G, Q141R mutant: proximity-dependent biotin ligase, SEQ ID NO: 16 (protein)
chain: B7 chain with S118G
modifications: AVVA-R118G,Q141R

specificity / non-specific signal of labeling ([1]; 75 nL magnetic beads): extremely high specificity
B9: AWA-R118S mutant: proximity-dependent biotin ligase, SEQ ID NO: 13 (protein)
chain: B7 chain with R141Q
modifications: AVVA-R118S

specificity / non-specific signal of labeling ([1]; 75 nL magnetic beads): extremely high specificity
B10: AVVA-R118G mutant: proximity-dependent biotin ligase, SEQ ID NO: 14 (protein)
chain: B7 chain with S118G, R141Q
modifications: AVVA-R118G

signal intensity ([1]; 75 nL magnetic beads, exposure 3 minutes for TurboID): high signal intensity
B11: TurboID: proximity-dependent biotin ligase, SEQ ID NO: 2 (protein)
chain: MKDNTVPLKLIALLANGEFHSGEQLGETLGMSRAAINKHIQTLRDWGVDVFTVPGKGYSLPEPIPLLNAKQILGQLDGGSVAVLPVVDSTNQYLLDRIGELKSGDACIAEYQQAGRGSRGRKWFSPFGANLYLSMFWRLKRGPAAAIGLGPVIGIVMAEALRKLGADKVRVKWPNDLYLQDRKLAGILVELAGITGDAAQIVIGAGINVAMRRVEESVVNQGWITLQEAGINLDRNTLAATLIRELRAALELFEQEGLAPYLPRWEKLDNFINRPVKLIIGDKEIFGISRGIDKQGALLLEQDGVIKPWMGGEISLRSAEK
modifications: TurboID
specificity / non-specific signal of labeling ([1]; 75 nL magnetic beads): a certain signal (non-specific) is found even for an interaction that should be negative
